Where no end group is shown, it is not given here.
Tests used:
[1] = molecular target: α2β1 integrin (Homo sapiens, UniProt P05556+P17301); test: Solid phase ligand binding assay (ELISA); conditions: immobilized integrin, GST-fusion ligand in solution
Protocol: (§1) FIG. 10A: Affinity purified GST-fusion proteins were resolved on SDS±PAGE and stained with Coomassie Blue. FIG. 10B: Integrins were immobilized onto 96-well plates, and various GST-fusion proteins (ligands) were allowed to bind. Bound ligands were incubated with anti-GST antibodies, appropriate substrate added and the color intensity measured. OD values <0.05 were considered to be background binding. Data are expressed as mean±SD (n=4). FIG. 10C: Dose-dependent binding of αvβ3 integrin with recombinant GST-VCIP-RGD. FIGS. 10D-F: Representative photomicrographs of adhesion and spreading of endothelial cells replated onto dishes coated with either […]. Cells were allowed to attach for 45 min, washed with PBS and stained with H&E. Magnification, 100×. Bar, 25 μm. FIG. 10G: Adhesion blocking assays. Endothelial cells were replated onto dishes coated with increasing concentrations of affinity purified fusion proteins (1, 5 and 10 nM). Attached cells were stained, washed and absorbances of eluted dyes measured. To determine the effects of anti-integrin antibodies, dishes were coated with 10 nM GST-VCIP-RGD. Endothelial cells were pre-incubated at 4° C. with increasing concentrations of anti-α5β1 (P1D6), anti-αvβ3 (LM609), anti-α2β1 (MAB 1998) and anti-α3β1 (P1B5) monoclonal antibodies (1, 5 and 10 μg/ml) for 30 min, then washed and replated onto coated dishes. Attached cells were stained, washed and absorbances of eluted dyes determined. Three independent experiments were performed with several replicate samples in each experiment. Data are expressed as mean±S.D.; diamond, P<0.01; asterisk, P<0.001. FIG. 10H: Clarified extracts prepared from [^35S]Cys/Met-labeled HdMVEC were pre-adsorbed and incubated with GST-VCIP-RGD in the absence (−) or presence (+) of GRGDSP peptide (lanes 1 and 2). The presence of αvβ3 and α5β1 integrins (lanes 5 and 6) in GST-VCIP pull-down complex (lane 1) was confirmed by incubating aliquots of dissociated complex with the indicated antibodies. Anti-mouse IgG was included as negative control (lane 3).
(§2) Solid phase ligand binding assays were performed according to a previously published procedure (Orlando and Cheresh, 1991). Briefly, soluble α2β1, α5β1, αvβv3 and αvβ5 integrins (1 μg/ml in a solution containing 20 mM Tris pH 7.4, 150 mM NaCl, 1 mM CaCl2, 1 mM MgCl2 and 1 mM MnCl2) were immobilized onto 96-well microtiter plates at 4° C. Wells were washed and blocked with 0.5% BSA. After washing, GST, GST-VCIP-RGD and GST-VCIP-RGE ligands were added (50-350 ng per well in a solution of TBS pH 7.4) and incubated at 37° C. for 1 h. After washing, the wells were incubated with the anti-GST (sc-138, Santa Cruz) monoclonal antibody for 1 h, followed by washing and incubation with a horseradish peroxidase (HRP)-conjugated mouse secondary antibody. Plates were then washed again and the ABTS substrate (Bio-Rad) was added. All washing steps were carried out using PBS. Absorbances were read at 405 nm, and non-specific binding values were adjusted against BSA.
(§3) To determine whether GST-VCIP-RGD could interact with various integrins, a solid-phase ligand binding assay was performed.

[2] = molecular target: α5β1 integrin (Homo sapiens, UniProt P05556+P08648); test: Solid phase ligand binding assay (ELISA); conditions: immobilized integrin, GST-fusion ligand in solution
Protocol: as §1, §2, §3

[3] = molecular target: αvβ3 integrin (Homo sapiens, UniProt P05106+P06756); test: Solid phase ligand binding assay (ELISA)
Protocol: as §1, §2, §3

[4] = molecular target: αvβ5 integrin (Homo sapiens, UniProt P06756+P18084); test: Solid phase ligand binding assay (ELISA); conditions: immobilized integrin, GST-fusion ligand in solution
Protocol: as §1, §2, §3

[5] = tested on: endothelial cells; test: Adhesion of endothelial cells to wells coated with GST fusion proteins; assay type: cell-based, human; conditions: coating 1, 5, 10 nM; 45 min
Protocol: FIG. 10A: Affinity purified GST-fusion proteins were resolved on SDS±PAGE and stained with Coomassie Blue. FIG. 10B: Integrins were immobilized onto 96-well plates, and various GST-fusion proteins (ligands) were allowed to bind. Bound ligands were incubated with anti-GST antibodies, appropriate substrate added and the color intensity measured. OD values <0.05 were considered to be background binding. Data are expressed as mean±SD (n=4). FIG. 10C: Dose-dependent binding of αvβ3 integrin with recombinant GST-VCIP-RGD. FIGS. 10D-F: Representative photomicrographs of adhesion and spreading of endothelial cells replated onto dishes coated with either fibronectin (FIG. 9D), vitronectin (FIG. 9E) or GST-VCIP-RGD (FIG. 9F). […] Attached cells were stained, washed and absorbances of eluted dyes measured. […] Attached cells were stained, washed and absorbances of eluted dyes determined. […] Data are expressed as mean±S.D.; diamond, P<0.01; asterisk, P<0.001. […]
For adhesion blocking assays, endothelial cells were detached, washed with PBS and resuspended in M199 media containing 1 mM CaCl2 and 1 mM MgCl2 in the absence of serum or growth factors. […] Absorbances were measured at 540 nm.
Next, the capacity of VCIP-RGD to bind endothelial cell integrins was evaluated by determining the effect of GST-VCIP fusion proteins on cell adhesion and spreading.

[6] = tested on: αvβ3 and α5β1 integrins; test: GST pull-down from [35S]Cys/Met-labelled endothelial cell lysates; assay type: binding, human; conditions: 10 μg per 3 mg lysate
[7] = tested on: Fak, Cas, Shc and paxillin; test: Tyrosine phosphorylation of focal adhesion proteins in replated HUVECs; assay type: cell-based, human; conditions: HUVECs replated on coated dishes, 30 and 60 min
Protocol: Dishes were coated with either fibronectin (Fn, 10 μg/ml), vitronectin (Vn, 10 μg/ml) or affinity purified GST-VCIP-RGD or -RGE fusion proteins (10 and 20 nM). Endothelial cells were detached, washed and maintained in suspension (Sus) for 30 min, then allowed to re-attach for 30 or 60 min. Adherent cells were solubilized in RIPA buffer. Blots shown are representative of those obtained in at least three separate experiments. FIGS. 11A-E: Equal amounts of protein (˜1.0 mg) from clarified extracts were subjected to immunoprecipitation (IP) followed by immunoblotting using the indicated antibodies. FIG. 11F: Equal amounts of protein from total lysates (35 μg/lane) were subjected to immunoblotting with the anti-phospho-Erk½ antibody. FIG. 11G: The same membrane was stripped and re-probed with an anti-Erk½ antibody, showing that equivalent amounts of proteins used across the lanes.
Serum- and growth factor-starved HUVECs were allowed to attach and spread on dishes coated with optimal concentrations of fibronectin, vitronectin, GST-RGD-VCIP and GST-VCIP-RGE. Cells were harvested after 30 and 60 min at 37° C. Cells were then solubilized, clarified, pre-adsorbed, immunoprecipitated and subjected to immunoblotting with various antibodies as shown in FIG. 11. […] Cells that were replated onto GST-VCIP-RGE appeared rounded.

αvβ3 integrin, sequence (P06756 31-889 limits assumed): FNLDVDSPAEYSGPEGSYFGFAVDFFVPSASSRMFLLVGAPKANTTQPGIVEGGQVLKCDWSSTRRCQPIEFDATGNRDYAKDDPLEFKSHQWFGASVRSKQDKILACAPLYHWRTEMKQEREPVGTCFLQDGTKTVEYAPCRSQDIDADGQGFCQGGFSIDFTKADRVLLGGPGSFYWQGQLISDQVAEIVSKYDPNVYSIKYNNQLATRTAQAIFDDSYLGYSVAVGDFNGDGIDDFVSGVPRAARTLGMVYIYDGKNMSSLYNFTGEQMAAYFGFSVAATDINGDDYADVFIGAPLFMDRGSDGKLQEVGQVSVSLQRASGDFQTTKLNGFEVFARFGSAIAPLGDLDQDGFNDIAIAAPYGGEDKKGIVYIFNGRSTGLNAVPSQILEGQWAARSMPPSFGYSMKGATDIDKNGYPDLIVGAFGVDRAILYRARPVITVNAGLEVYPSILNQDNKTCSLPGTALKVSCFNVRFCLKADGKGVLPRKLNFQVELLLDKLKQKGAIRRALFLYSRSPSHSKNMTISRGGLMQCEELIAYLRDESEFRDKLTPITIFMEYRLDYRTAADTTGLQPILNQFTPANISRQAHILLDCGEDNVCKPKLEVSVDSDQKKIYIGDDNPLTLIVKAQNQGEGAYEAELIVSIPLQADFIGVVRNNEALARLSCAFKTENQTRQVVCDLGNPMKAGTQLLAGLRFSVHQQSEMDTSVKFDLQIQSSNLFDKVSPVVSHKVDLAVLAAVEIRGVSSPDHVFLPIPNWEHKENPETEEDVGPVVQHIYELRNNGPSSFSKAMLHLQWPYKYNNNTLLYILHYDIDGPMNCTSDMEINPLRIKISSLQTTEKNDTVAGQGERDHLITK
αvβ3 integrin, sequence (P06756 891-1048 limits assumed): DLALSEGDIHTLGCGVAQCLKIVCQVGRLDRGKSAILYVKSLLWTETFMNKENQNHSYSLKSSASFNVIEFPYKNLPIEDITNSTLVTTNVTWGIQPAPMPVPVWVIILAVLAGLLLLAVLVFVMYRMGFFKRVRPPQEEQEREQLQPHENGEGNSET
αvβ3 integrin, sequence (P05106 27-788): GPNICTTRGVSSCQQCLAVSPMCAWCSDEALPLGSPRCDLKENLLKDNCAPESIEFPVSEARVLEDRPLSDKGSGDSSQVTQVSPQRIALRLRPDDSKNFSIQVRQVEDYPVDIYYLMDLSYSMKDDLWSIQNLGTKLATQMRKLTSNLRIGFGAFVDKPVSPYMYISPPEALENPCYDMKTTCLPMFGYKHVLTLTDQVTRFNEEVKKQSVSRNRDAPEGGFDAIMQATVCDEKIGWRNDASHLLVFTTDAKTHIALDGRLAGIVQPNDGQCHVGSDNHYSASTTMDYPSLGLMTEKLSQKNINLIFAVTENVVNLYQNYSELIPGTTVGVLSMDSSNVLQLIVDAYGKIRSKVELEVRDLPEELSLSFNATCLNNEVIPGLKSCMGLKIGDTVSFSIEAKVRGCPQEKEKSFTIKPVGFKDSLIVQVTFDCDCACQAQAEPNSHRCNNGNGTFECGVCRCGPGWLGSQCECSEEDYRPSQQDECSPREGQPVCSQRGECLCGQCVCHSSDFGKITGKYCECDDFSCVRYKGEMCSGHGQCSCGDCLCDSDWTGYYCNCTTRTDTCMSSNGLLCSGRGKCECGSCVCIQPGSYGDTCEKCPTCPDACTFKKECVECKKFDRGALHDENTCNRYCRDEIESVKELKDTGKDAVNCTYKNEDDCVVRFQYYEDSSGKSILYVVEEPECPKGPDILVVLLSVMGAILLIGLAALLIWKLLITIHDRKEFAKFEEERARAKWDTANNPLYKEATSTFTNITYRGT
α5β1 integrin, sequence (P08648 42-894 limits assumed): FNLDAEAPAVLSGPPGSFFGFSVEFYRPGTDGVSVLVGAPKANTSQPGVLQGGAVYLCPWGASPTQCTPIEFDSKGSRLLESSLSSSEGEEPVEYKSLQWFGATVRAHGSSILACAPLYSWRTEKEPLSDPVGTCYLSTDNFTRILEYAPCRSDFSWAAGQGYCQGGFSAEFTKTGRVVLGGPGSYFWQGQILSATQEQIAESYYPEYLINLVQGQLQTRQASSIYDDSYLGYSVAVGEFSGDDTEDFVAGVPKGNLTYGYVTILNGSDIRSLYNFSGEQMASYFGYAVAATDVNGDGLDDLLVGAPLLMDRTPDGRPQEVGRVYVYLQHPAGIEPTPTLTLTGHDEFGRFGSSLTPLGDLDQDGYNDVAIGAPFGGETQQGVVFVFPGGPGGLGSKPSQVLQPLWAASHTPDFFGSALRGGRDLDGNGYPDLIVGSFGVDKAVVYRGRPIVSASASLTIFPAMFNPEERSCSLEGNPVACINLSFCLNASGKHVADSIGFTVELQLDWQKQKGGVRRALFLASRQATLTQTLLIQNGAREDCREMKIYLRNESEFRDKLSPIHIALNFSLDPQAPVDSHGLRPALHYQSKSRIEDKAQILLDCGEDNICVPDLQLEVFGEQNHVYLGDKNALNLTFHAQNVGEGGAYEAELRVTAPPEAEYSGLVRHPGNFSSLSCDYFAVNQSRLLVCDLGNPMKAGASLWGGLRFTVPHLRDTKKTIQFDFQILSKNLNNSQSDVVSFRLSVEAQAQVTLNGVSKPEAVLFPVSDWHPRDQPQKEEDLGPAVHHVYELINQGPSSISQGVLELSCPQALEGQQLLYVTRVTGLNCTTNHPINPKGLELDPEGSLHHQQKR
α5β1 integrin, sequence (P08648 895-1049 limits assumed): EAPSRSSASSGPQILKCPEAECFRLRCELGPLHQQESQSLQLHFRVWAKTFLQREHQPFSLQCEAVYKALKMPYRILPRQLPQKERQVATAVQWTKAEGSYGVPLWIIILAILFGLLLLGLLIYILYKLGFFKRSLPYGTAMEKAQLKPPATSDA
α5β1 integrin, sequence (P05556 21-798): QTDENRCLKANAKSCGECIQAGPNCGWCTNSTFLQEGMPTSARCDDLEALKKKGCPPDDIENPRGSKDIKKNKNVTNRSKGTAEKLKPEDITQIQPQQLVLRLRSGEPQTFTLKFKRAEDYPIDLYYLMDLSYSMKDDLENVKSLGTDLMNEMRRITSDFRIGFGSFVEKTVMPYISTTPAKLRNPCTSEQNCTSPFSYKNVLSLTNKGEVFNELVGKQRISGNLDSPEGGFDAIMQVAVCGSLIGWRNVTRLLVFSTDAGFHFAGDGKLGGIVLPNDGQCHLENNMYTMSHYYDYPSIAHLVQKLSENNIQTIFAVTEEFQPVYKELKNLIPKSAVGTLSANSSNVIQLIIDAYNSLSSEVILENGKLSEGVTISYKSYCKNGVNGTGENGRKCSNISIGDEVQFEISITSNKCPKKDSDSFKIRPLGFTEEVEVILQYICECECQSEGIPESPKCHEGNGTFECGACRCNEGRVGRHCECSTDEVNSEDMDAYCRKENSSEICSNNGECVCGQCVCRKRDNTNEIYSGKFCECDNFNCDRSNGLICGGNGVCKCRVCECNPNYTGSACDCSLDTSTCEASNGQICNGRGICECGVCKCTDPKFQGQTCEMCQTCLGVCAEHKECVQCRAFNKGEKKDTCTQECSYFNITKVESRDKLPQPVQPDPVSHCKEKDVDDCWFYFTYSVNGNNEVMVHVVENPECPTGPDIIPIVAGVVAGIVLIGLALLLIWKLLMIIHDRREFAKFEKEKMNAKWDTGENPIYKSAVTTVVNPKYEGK
αvβ5 integrin, sequence (P06756 31-889 limits assumed): as the sequence (P06756 31-889 limits assumed) above
αvβ5 integrin, sequence (P06756 891-1048 limits assumed): as the sequence (P06756 891-1048 limits assumed) above
αvβ5 integrin, sequence (P18084 24-799): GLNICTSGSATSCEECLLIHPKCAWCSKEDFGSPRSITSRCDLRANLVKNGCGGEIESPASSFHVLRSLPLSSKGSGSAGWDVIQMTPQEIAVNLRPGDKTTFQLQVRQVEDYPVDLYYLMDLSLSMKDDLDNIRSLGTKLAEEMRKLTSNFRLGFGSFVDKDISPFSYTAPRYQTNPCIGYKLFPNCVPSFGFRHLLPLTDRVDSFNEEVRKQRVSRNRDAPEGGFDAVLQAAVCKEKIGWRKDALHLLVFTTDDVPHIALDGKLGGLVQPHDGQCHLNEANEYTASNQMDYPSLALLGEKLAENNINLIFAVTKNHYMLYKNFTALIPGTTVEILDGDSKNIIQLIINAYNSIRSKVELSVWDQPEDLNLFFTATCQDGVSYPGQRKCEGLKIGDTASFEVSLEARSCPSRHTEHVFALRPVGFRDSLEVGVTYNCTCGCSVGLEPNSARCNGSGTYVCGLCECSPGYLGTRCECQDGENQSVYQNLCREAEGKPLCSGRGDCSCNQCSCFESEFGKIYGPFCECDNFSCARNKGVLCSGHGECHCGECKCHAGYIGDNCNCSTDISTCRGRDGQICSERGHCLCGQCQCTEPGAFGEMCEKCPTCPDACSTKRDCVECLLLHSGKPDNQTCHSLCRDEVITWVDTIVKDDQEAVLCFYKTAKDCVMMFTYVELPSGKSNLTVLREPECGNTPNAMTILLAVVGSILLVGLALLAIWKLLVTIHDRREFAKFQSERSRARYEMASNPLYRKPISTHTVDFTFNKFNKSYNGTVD

interaction with α2β1 integrin [1]: did not
interaction with α5β1 integrin [2]: interacted
interaction with αvβ3 integrin ([3]; immobilized integrin, GST-fusion ligand in solution): interacted
interaction with αvβ5 integrin [4]: did not
Substance: GST-VCIP-RGD: recombinant GST fusion of 49 amino acid residues (145-194) of VCIP second extracellular loop, wild-type RGD (DIAKVSIGRLRPHFLSVCNPDFSQINCSEGYIQNYRCRGDDSKVQEARKS; cysteine pairing not given here; also: GST fusion)
dose-dependence of binding to αvβ3 integrin ([3]; FIG. 10C): bound to αvβ3 integrin in a dose-dependent manner
adhesion of endothelial cells to coated wells [5]: comparable to that observed in wells coated with vitronectin and fibronectin substrates
integrins present in pull-down complex [6]: contained anti-αvβ3 and -α5β1 immunoreactivities
tyrosine phosphorylation of Fak, Cas, Shc and paxillin [7]: comparable to those induced by fibronectin and vitronectin
tyrosine phosphorylation of Fak, Cas, Shc and paxillin ([7]; listed as VCIP-RGD): induced tyrosine phosphorylation of Fak, Cas, Shc and paxillin at both 30 and 60 min
